Legend:
[1] = Whole body distribution of FITC labeled PIF-1 after IV and IP injection; assay type: in vivo, rats
Procedure: In a further experiment, PIF presence in the spleen was confirmed in vivo, In addition, PIF presence in the cecum, bone marrow and uterus was determined. Adult female rats were injected FITC labeled PIF-1 500 nM in 100 ul volume IV and IP (Eric Solon QPS Inc). 5 and 30 minutes later rats were sacrificed and snap frozen in hexane embedded in frozen media. Whole body 40 um cryo sectioned were obtained and scaaned with a 9140 Typhoon bioimage scanner at a FITC excitation length.

PBMC = assay: FITC-labeled PIF binding to PBMC subpopulations (flow cytometry); design: species or system human; details: PBMC within 24 hrs of PHA activation
Procedure: Expression of PIF-1(15) (SEQ ID NO:1), receptor following PHA induced PBMC proliferation CD-4 T cells; CD-8 T cells; NK cell and B cells (unstimulated-top); (PHA stimulated-bottom). Flow cytometry analysis of PBMC following exposure to FITC sPIF-1(15) (SEQ ID NO:13) % expression was determined in PBMC subtypes before and after exposure to 1 ug/ml PHA for 24 hours.
Human PBMC were isolated by the Ficoll method. FITC-labeled nPIF-115 (SEQ ID NO: 1) and (FITC)-labeled scrPIF-1 (SEQ ID NO:5) and match-size irrelevant peptide (FITC)-labeled negative controls negPIF-1(15) (SEQ ID NO:11), were dissolved in PBS at concentrations ranging from 0.75 to 48.19 μM, and were incubated with 500,000 lymphocytes for 1 h at room temperature. The cells were washed 6 times with PBS and resuspended in 500 μl of the same buffer. T-cells and monocytes identification was performed in independent experiments by incubation with anti-CD3 and anti-CD14 antibody-phycoerithryn (PE) labeled. nPIF-115 (SEQ ID NO: 1) binding to PBMC was determined by flow cytometry. In addition, rosettes formed by T cell-platelets were detected by flow cytometry using anti-CD3 antibody-PE and anti-CD41a antibody-FITC (all antibodies were from Pharmingen Inc.).
Using flow cytometry fluoroscein-labeled sPIF-115 (SEQ ID NO: 13) binding to immune cells was examined on resting PBMC.

mouse splenocytes = assay: FITC peptide binding to mouse splenocytes with 100 fold excess unlabeled peptide; design: species or system C57Bl/6 mice; details: 300 nM FITC peptide, 100 fold excess unlabeled PIF
Procedure: Virgin female C57Bl/6 mice were sacrificed and spleen cells were isolated and placed in AIM V culture media with 300 nM FITC PIF-1 (15)+/−100 fold excess unlabeled PIF. Following incubation cells were placed in a flow cytometry and the percentage of cells stained examined.
Splenocytes from virgin female C57BL/6 mice were stained with 300 nM of PIF-1-FITC or scrPIF-1-FITC. Filled histograms indicated PIF-1-FITC or scrPIF-1-FITC alone. Empty histograms represent PIF-1-FITC or scrPIF-1-FITC staining in the presence of 100-fold excess of corresponding unlabeled peptide. Histograms represent both monocytes and lymphocytes according to scatter gating.
Cells were evaluated using flow cytometry determining labeled cells population Filled histograms indicate PIF-FITC or scrPIF-FITC alone. […] Empty histograms represent PIF-FITC or scrPIF-FITC staining in the presence of 100-fold excess of corresponding unlabeled peptide. Histograms represent both monocytes and lymphocytes according to scatter gating.

With “FITC sPIF-1(15): sPIF-1(15) labeled on N-terminus with fluorescein isothyocyanate via b-alanine spacer” the IP pick up ([1]; 500 nM in 100 ul IP, 5 and 30 minutes) was “slower with major collection in the cecum”, the “organs with specific pick up” value ([1]; 500 nM in 100 ul IV, 5 and 30 minutes) was “spleen, bone marrow and uterus” and the elimination ([1]; IV injected, FIG. 19) was “rapid elimination by the kidney”. For the same substance, the “B cells positive for fluorescent PIF binding” value (PBMC) was greater than 90%, the “T lymphocytes positive for fluorescent PIF binding” value (PBMC) was 60-80% and the “dissociation of FITC PIF from the PIF receptor by unlabeled peptide” value (mouse splenocytes) was greater than 90%.

— patent US7723289B2, “PIF tetrapeptides” (BioIncept, LLC, priority 2003, dated 2010)
